Results taken from patent US20190038623A1.
Each block holds one substance with its values, some of them ahead of it.

How the values were obtained:
[1] = target: human complement component C5 (human) (UniProt P01031); assay: cell-based or functional assay
[2] = target: complement component C3 (human) (UniProt P01024); assay: cell-based or functional assay

Inhibition (%) of CAP activity, CAP Wieslab assay, Experiment 2, Anti-C5 0.781 µg/mL, Compound 1 0 µM [1]: 8.1% | Inhibition (%) of CAP activity, CAP Wieslab assay, Experiment 2, Anti-C5 1.56 µg/mL, Compound 1 0 µM [1]: 20% | Inhibition (%) of CAP activity, CAP Wieslab assay, Experiment 2, Anti-C5 3.13 µg/mL, Compound 1 0 µM [1]: 46% | Inhibition (%) of CAP activity, CAP Wieslab assay, Experiment 2, Anti-C5 6.25 µg/mL, Compound 1 0 µM [1]: 61% | Inhibition (%) of CAP activity, CAP Wieslab assay, Experiment 2, Anti-C5 12.5 µg/mL, Compound 1 0 µM [1]: 75% | Inhibition (%) of CAP activity, CAP Wieslab assay, Experiment 2, Anti-C5 25 µg/mL, Compound 1 0 µM [1]: 85% | Inhibition (%) of CAP activity, CAP Wieslab assay, Experiment 2, Anti-C5 50 µg/mL, Compound 1 0 µM [1]: 90% | Inhibition (%) of CAP activity, CAP Wieslab assay, Experiment 3, Anti-C5 0.781 µg/mL, Compound 1 0 µM [1]: 10% | Inhibition (%) of CAP activity, CAP Wieslab assay, Experiment 3, Anti-C5 1.56 µg/mL, Compound 1 0 µM [1]: 16% | Inhibition (%) of CAP activity, CAP Wieslab assay, Experiment 3, Anti-C5 3.13 µg/mL, Compound 1 0 µM [1]: 31% | Inhibition (%) of CAP activity, CAP Wieslab assay, Experiment 3, Anti-C5 6.25 µg/mL, Compound 1 0 µM [1]: 45% | Inhibition (%) of CAP activity, CAP Wieslab assay, Experiment 3, Anti-C5 12.5 µg/mL, Compound 1 0 µM [1]: 64% | Inhibition (%) of CAP activity, CAP Wieslab assay, Experiment 3, Anti-C5 25 µg/mL, Compound 1 0 µM [1]: 79% | Inhibition (%) of CAP activity, CAP Wieslab assay, Experiment 3, Anti-C5 50 µg/mL, Compound 1 0 µM [1]: 90% | Inhibition (%) of CAP activity, CAP Wieslab assay, Experiment #1, Anti-C5 0.547 µg/mL, Compound 1 0 µM [1]: 11% | Inhibition (%) of CAP activity, CAP Wieslab assay, Experiment #1, Anti-C5 1.09 µg/mL, Compound 1 0 µM [1]: 11% | Inhibition (%) of CAP activity, CAP Wieslab assay, Experiment #1, Anti-C5 2.19 µg/mL, Compound 1 0 µM [1]: 27% | Inhibition (%) of CAP activity, CAP Wieslab assay, Experiment #1, Anti-C5 4.38 µg/mL, Compound 1 0 µM [1]: 47% | Inhibition (%) of CAP activity, CAP Wieslab assay, Experiment #1, Anti-C5 8.75 µg/mL, Compound 1 0 µM [1]: 60% | Inhibition (%) of CAP activity, CAP Wieslab assay, Experiment #1, Anti-C5 17.5 µg/mL, Compound 1 0 µM [1]: 76% | Inhibition (%) of CAP activity, CAP Wieslab assay, Experiment #1, Anti-C5 35 µg/mL, Compound 1 0 µM [1]: 87%
Substance: murine monoclonal antibody to human C5, isotype IgG1K, product No. A217 from Quidel

IC50 (µM), Inhibition of C3 Fragment deposition on artificial PNH cells (flow cytometry, anti-C3c staining, N = 2) [2]: 2.2 µM | IC50 (µM), Inhibition of C3 Fragment deposition on rabbit erythrocytes (flow cytometry, 20% C5-depleted normal human serum), N = 1 [2]: 1.4 µM
Substance: Compstatin (peptide)
Inhibition (%) of CAP activity, CAP-mediated hemolysis of rabbit erythrocytes, Experiment 2, Compstatin 0.469 µM, Compound 1 0 µM [2]: 6.9% | Inhibition (%) of CAP activity, CAP-mediated hemolysis of rabbit erythrocytes, Experiment 2, Compstatin 0.934 µM, Compound 1 0 µM [2]: 6% | Inhibition (%) of CAP activity, CAP-mediated hemolysis of rabbit erythrocytes, Experiment 2, Compstatin 1.88 µM, Compound 1 0 µM [2]: 10% | Inhibition (%) of CAP activity, CAP-mediated hemolysis of rabbit erythrocytes, Experiment 2, Compstatin 3.75 µM, Compound 1 0 µM [2]: 15% | Inhibition (%) of CAP activity, CAP-mediated hemolysis of rabbit erythrocytes, Experiment 2, Compstatin 7.5 µM, Compound 1 0 µM [2]: 41% | Inhibition (%) of CAP activity, CAP-mediated hemolysis of rabbit erythrocytes, Experiment 2, Compstatin 15 µM, Compound 1 0 µM [2]: 80% | Inhibition (%) of CAP activity, CAP-mediated hemolysis of rabbit erythrocytes, Experiment 2, Compstatin 30 µM, Compound 1 0 µM [2]: 98% | Inhibition (%) of CAP activity, CAP-mediated hemolysis of rabbit erythrocytes, Experiment 3, Compstatin 0.469 µM, Compound 1 0 µM [2]: 13% | Inhibition (%) of CAP activity, CAP-mediated hemolysis of rabbit erythrocytes, Experiment 3, Compstatin 0.934 µM, Compound 1 0 µM [2]: 17% | Inhibition (%) of CAP activity, CAP-mediated hemolysis of rabbit erythrocytes, Experiment 3, Compstatin 1.88 µM, Compound 1 0 µM [2]: 25% | Inhibition (%) of CAP activity, CAP-mediated hemolysis of rabbit erythrocytes, Experiment 3, Compstatin 3.75 µM, Compound 1 0 µM [2]: 40% | Inhibition (%) of CAP activity, CAP-mediated hemolysis of rabbit erythrocytes, Experiment 3, Compstatin 7.5 µM, Compound 1 0 µM [2]: 63% | Inhibition (%) of CAP activity, CAP-mediated hemolysis of rabbit erythrocytes, Experiment 3, Compstatin 15 µM, Compound 1 0 µM [2]: 97% | Inhibition (%) of CAP activity, CAP-mediated hemolysis of rabbit erythrocytes, Experiment 3, Compstatin 30 µM, Compound 1 0 µM [2]: 98% | Inhibition (%) of CAP activity, CAP-mediated hemolysis of rabbit erythrocytes, Experiment 4, Compstatin 0.469 µM, Compound 1 0 µM [2]: 9% | Inhibition (%) of CAP activity, CAP-mediated hemolysis of rabbit erythrocytes, Experiment 4, Compstatin 0.934 µM, Compound 1 0 µM [2]: 12% | Inhibition (%) of CAP activity, CAP-mediated hemolysis of rabbit erythrocytes, Experiment 4, Compstatin 1.88 µM, Compound 1 0 µM [2]: 22% | Inhibition (%) of CAP activity, CAP-mediated hemolysis of rabbit erythrocytes, Experiment 4, Compstatin 3.75 µM, Compound 1 0 µM [2]: 34% | Inhibition (%) of CAP activity, CAP-mediated hemolysis of rabbit erythrocytes, Experiment 4, Compstatin 7.5 µM, Compound 1 0 µM [2]: 64% | Inhibition (%) of CAP activity, CAP-mediated hemolysis of rabbit erythrocytes, Experiment 4, Compstatin 15 µM, Compound 1 0 µM [2]: 98% | Inhibition (%) of CAP activity, CAP-mediated hemolysis of rabbit erythrocytes, Experiment 4, Compstatin 30 µM, Compound 1 0 µM [2]: 99% | Inhibition (%) of CAP activity, CAP-mediated hemolysis of rabbit erythrocytes, Experiment #1, Compstatin 0.469 µM, Compound 1 0 µM [2]: 7.3% | Inhibition (%) of CAP activity, CAP-mediated hemolysis of rabbit erythrocytes, Experiment #1, Compstatin 0.934 µM, Compound 1 0 µM [2]: 3.6% | Inhibition (%) of CAP activity, CAP-mediated hemolysis of rabbit erythrocytes, Experiment #1, Compstatin 1.88 µM, Compound 1 0 µM [2]: 8.6% | Inhibition (%) of CAP activity, CAP-mediated hemolysis of rabbit erythrocytes, Experiment #1, Compstatin 3.75 µM, Compound 1 0 µM [2]: 17% | Inhibition (%) of CAP activity, CAP-mediated hemolysis of rabbit erythrocytes, Experiment #1, Compstatin 7.5 µM, Compound 1 0 µM [2]: 38% | Inhibition (%) of CAP activity, CAP-mediated hemolysis of rabbit erythrocytes, Experiment #1, Compstatin 15 µM, Compound 1 0 µM [2]: 65% | Inhibition (%) of CAP activity, CAP-mediated hemolysis of rabbit erythrocytes, Experiment #1, Compstatin 30 µM, Compound 1 0 µM [2]: 98% | Inhibition (%) of CAP-mediated hemolysis of PNH erythrocytes, Experiment 2, Compstatin 4.69 µM alone (Compound 1 0 µM) [2]: 0% | Inhibition (%) of CAP-mediated hemolysis of PNH erythrocytes, Experiment 2, Compstatin 9.38 µM alone (Compound 1 0 µM) [2]: 0% | Inhibition (%) of CAP-mediated hemolysis of PNH erythrocytes, Experiment 2, Compstatin 18.8 µM alone (Compound 1 0 µM) [2]: 0% | Inhibition (%) of CAP-mediated hemolysis of PNH erythrocytes, Experiment 2, Compstatin 37.5 µM alone (Compound 1 0 µM) [2]: 0% | Inhibition (%) of CAP-mediated hemolysis of PNH erythrocytes, Experiment 2, Compstatin 75 µM alone (Compound 1 0 µM) [2]: 10% | Inhibition (%) of CAP-mediated hemolysis of PNH erythrocytes, Experiment 2, Compstatin 150 µM alone (Compound 1 0 µM) [2]: 71% | Inhibition (%) of CAP-mediated hemolysis of PNH erythrocytes, Experiment 2, Compstatin 300 µM alone (Compound 1 0 µM) [2]: 99% | Inhibition (%) of CAP-mediated hemolysis of PNH erythrocytes, Experiment #1, Compstatin 4.69 µM alone (Compound 1 0 µM) [2]: 0% | Inhibition (%) of CAP-mediated hemolysis of PNH erythrocytes, Experiment #1, Compstatin 9.38 µM alone (Compound 1 0 µM) [2]: 0% | Inhibition (%) of CAP-mediated hemolysis of PNH erythrocytes, Experiment #1, Compstatin 18.8 µM alone (Compound 1 0 µM) [2]: 0% | Inhibition (%) of CAP-mediated hemolysis of PNH erythrocytes, Experiment #1, Compstatin 37.5 µM alone (Compound 1 0 µM) [2]: 0% | Inhibition (%) of CAP-mediated hemolysis of PNH erythrocytes, Experiment #1, Compstatin 75 µM alone (Compound 1 0 µM) [2]: 9% | Inhibition (%) of CAP-mediated hemolysis of PNH erythrocytes, Experiment #1, Compstatin 150 µM alone (Compound 1 0 µM) [2]: 86% | Inhibition (%) of CAP-mediated hemolysis of PNH erythrocytes, Experiment #1, Compstatin 300 µM alone (Compound 1 0 µM) [2]: 98%
